What is called stoichiometry N is the number of molecules, sites or subunits per partner or assembly.

The target of test [1] is Case12. The test can be described thus: SEC-MALS; sensor at 4 mg/mL, Ca2+-saturated (5 mM CaCl2 added, 1 h); Superdex 200, 50 mM Tris-HCl, 300 mM NaCl, pH 7.4, 1 mM CaCl2; monomer to dimer.
For test [2], the target named is Case12. Description: SEC-MALS; sensor at 16 mg/mL, Ca2+-saturated (5 mM CaCl2 added, 1 h); Superdex 200, 50 mM Tris-HCl, 300 mM NaCl, pH 7.4, 1 mM CaCl2; monomer to dimer. (In general: In gel filtration, larger molecules generally elute earlier.)
Test [3] has as its target Case16. Description: SEC-MALS; sensor at 4 mg/mL, Ca2+-saturated (5 mM CaCl2 added, 1 h); Superdex 200, 50 mM Tris-HCl, 300 mM NaCl, pH 7.4, 1 mM CaCl2; monomer to dimer.
Test [4] has as its target Case16. The test can be described thus: SEC-MALS; sensor at 16 mg/mL, Ca2+-saturated (5 mM CaCl2 added, 1 h); Superdex 200, 50 mM Tris-HCl, 300 mM NaCl, pH 7.4, 1 mM CaCl2; monomer to dimer.

On to Case12, for which the percent dimer in the test with Case12 [1] amounted to 3%. For the same substance, in the test with Case12 [2], the percent dimer was 22% and the stoichiometry N was determined as 2.
Take Case16: the percent dimer with Case16 [3] turned out to be 2%. Also, in the test with Case16 [4], the percent dimer stood at 26% and the stoichiometry N was 2.
